Measured values as given in patent publication US11814435B2, “Therapeutic antibodies and their uses” (PFIZER INC., priority 2015, dated 2023).
Where a chain is given by its changes, count along the chain named. Blank lines part the entries; values can stand above or below the molecule they belong to.

Columns and labels:
[1] = tested on: Molp8 LucGFP orthotopic myeloma; test: Anti-BCMA/CD3 bispecific in combination with standard of care in orthotopic Molp8 tumor model; type: in vivo, NSG mice; conditions: FIG. 14; bispecific 0.3 mg/kg; bortezomib 1 mg/kg i.p.; lenalidomide 50 mg/kg oral gavage
Experimental: In vivo efficacy study of BCMA bispecifics was performed with Molp8, expressing luciferase and GFP, orthotopic model. Two million Molp8 LucGFP cells were injected intravenously through the tail vein into 6-8 weeks old female NSG animals. Intraperitoneal injection of D-luciferin (Regis Technologies, Morton Grove, Ill.) (200 uL per animal at 15 mg/mL), followed by anesthesia with isofluorane and subsequent whole body bioluminescence imaging (BLI) enabled monitoring of tumor burden. Bioluminescent signals emitted by the interaction between luciferase expressed by the tumor cells and luciferin were captured by imaging using an IVIS Spectrum CT (Perkin Elmer, MA) and quantified as total flux (photons/sec) using Living Image 4.4 (Caliper Life Sciences, Alameda, Calif.). The animals were injected through bolus tail vein on day 7 with 20 million expanded T cells as described in Example 18. Two days post T cell injection, mice were imaged and randomized into five groups of seven mice with an average of 17E6 total flux/group: 1) Combo_Rd4_0.6 nM_C29, 0.3 mg/kg, 2) Combo_Rd4_0.6 nM_C29, 0.3 mg/kg and 1 mg/kg bortezomib, 3) Combo_Rd4_0.6 nM_C29, 0.3 mg/kg and 50 mg/kg lenalidomide, 4) 1 mg/kg bortezomib and 50 mg/kg lenalidomide and 5) vehicle. […]

[2] = tested on: OPM2 cells; test: Anti-BCMA/CD3 bispecific with lenalidomide, carfilzomib or doxorubicin, T cell killing of OPM2 (flow cytometry live cells); type: cell-based; conditions: FIGS. 15A-15C; 1.56 nM carfilzomib, 195 nM lenalidomide, 6.25 nM doxorubicin; three days
Experimental: OPM2 and CD3+ T cells were first incubated with the standard of care for two hours at 37°. 1.56 nM carfilzomib and 6.25 nM doxorubicin were diluted in PBS containing 0.02% DMSO. Lenalidomide was diluted in PBS containing 0.1% DMSO at 195 nM. Cells were treated with 10-fold serially diluted bispecific antibody.

[3] = target: T1, BCMA (Homo sapiens, UniProt Q02223); conditions: background; read-out: affinity for BCMA; cited from earlier work
T1 sequence (Q02223 1-184): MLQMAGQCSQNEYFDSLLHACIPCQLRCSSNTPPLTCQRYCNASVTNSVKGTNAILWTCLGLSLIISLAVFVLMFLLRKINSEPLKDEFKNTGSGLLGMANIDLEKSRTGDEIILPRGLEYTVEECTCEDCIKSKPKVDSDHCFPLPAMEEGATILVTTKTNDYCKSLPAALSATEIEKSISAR

[4] = tested on: cynomolgus PBMC; test: PBMC T cell proliferation by 3H-thymidine incorporation; type: cell-based; conditions: FIG. 10A/10B, 2 day cultures
Experimental: (§1) Human anti-CD3 antibodies were cloned from immunized mouse, expressed as mouse IgG1, and purified by Protein A affinity beads. Human/Cynomolgus peripheral blood mononuclear cells (hu/cyPBMC) were prepared by Ficoll (Density: 1.083 g/mL, GE) density gradient centrifugation from blood filters obtained from local blood banks. Erythrocytes were removed by incubating in LCK buffer (155 mM NH4Cl, 10 mM KHCO3, […]; Gibco) for 3 minutes at room temperature. Cells were centrifuged for 5 min at 600 g. The supernatant containing the lysed erythrocytes was discarded, and the PBMC were washed twice in 50 ml 1×PBS/1% BSA/1 mM EDTA. The pelleted cells were adjusted to 10^7 cells per ml in culture media, X-VIVO-15, serum free media (Lonza,), and the PBMC were seeded as 10^6 (100 ul) per-well to round bottom 96 well tissue culture plates. Selected Abs are 10× serial diluted from 1000 ng to 1 ng per mL for mixing with human PBMC and 5× serial diluted from 5000 ng to 200 ng per mL for mixing with cynomolgus PBMC. For analysis of PBMC T cell proliferation by ^3H-thymidine incorporation, 2 day cultures were performed in triplicate. During the final 16 h of culture ^3H-thymidine ([…]) was added, and incorporation was measured. Cells are harvested and lysed, DNA is captured onto glass-fiber filter. Radioactivity (cpm) as measure for proliferation by counting on a scintillation beta-counter.

[5] = tested on: human PBMC; test: as above; type: cell-based; conditions: FIG. 10A/10B, 2 day cultures
Experimental: as §1

[6] = target: bsc_hCD3ed (Homo sapiens, UniProt P07766); test: Biacore kinetics anti-xCD3e ab/bsc_hCD3ed; type: binding; conditions: data fitted from 80 nM-0.64 nM
[7] = target: hCD3 (human CD3) (Homo sapiens, UniProt P07766); test: Kinetics and affinity of hCD3/human IgG interactions by SPR (Bio-Rad Proteon XPR36); type: binding; conditions: 37° C.
Experimental: All experiments were performed on a Bio-Rad Proteon XPR36 surface Plasmon resonance biosensor (Bio-Rad, Hercules, Calif.). An array of anti-CD3 antibodies was prepared using an amine-coupling method on a Bio-Rad GLC Sensor Chip similar to that described in Abdiche, et al., Anal. Biochem. 411, 139-151 (2011). The analysis temperature for the immobilization was 25° C. and the running buffer was HBS-T+(10 mM HEPES, 150 mM NaCl, 0.05% Tween-20, pH 7.4). Channels were activated in the analyte (horizontal) direction by injecting a mixture of 1 mM ECD and 0.25 mM NHS for 3 minutes at a flow rate of 30 μL/min. IgGs were immobilized on the activated spots by injecting them in the ligand (vertical) direction at 20 μg/mL in 10 mM Acetate pH 4.5 buffer for 1.5 minutes at […]. The activated surfaces were blocked by injecting 1M ethanolamine, pH 8.5 in the analyte direction for 3 minutes at 30 μL/min.
The analysis temperature for the hCD3 binding analysis was 37° C. or 25° C. in a running buffer of HBS-T+, supplemented with 1 mg/mL BSA. A kinetic titration method was employed for the interaction analysis as described in Abdiche, et al. The hCD3 (human CD3) analyte was injected in the analyte direction using a series of injections from low to high concentration. The concentrations used were 0.08 nM, 0.4 nM, 2 nM, 10 nM and 50 nM (a 5-membered series, with a 5-fold dilution factor and top concentration of 50 nM). The association time for a given analyte dilution was two minutes. Immediately after the 50 nM hCD3 injection, dissociation was monitored for 2 hours. Prior to the hCD3 analyte injections, buffer was injected 5 times using the same association and dissociation times at the hCD3 analyte cycles to prepare a buffer blank sensorgram for double-referencing purposes (double referencing as described in Myszka, J. Mol. Recognit. 12, 279-284 (1999).
The sensorgrams were double-referenced and fit to a 1:1 Langmuir with mass transport kinetic titration model in BIAevaluation Software version 4.1.1 (GE Lifesciences, Piscataway, N.J.).

Sequence of hCD3 (human CD3) (P07766 23-126 limits assumed): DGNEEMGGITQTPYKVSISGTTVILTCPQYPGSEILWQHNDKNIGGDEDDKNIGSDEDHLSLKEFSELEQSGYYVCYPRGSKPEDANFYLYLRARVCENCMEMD
Sequence of hCD3 (human CD3) (P04234 22-105 partner limits assumed): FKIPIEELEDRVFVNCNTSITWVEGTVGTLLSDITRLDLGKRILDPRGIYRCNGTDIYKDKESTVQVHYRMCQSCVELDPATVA
Sequence of bsc_hCD3ed (P07766 23-126 limits assumed): as the sequence (P07766 23-126 limits assumed) above
Sequence of bsc_hCD3ed (P04234 22-105 partner limits assumed): as the sequence (P04234 22-105 partner limits assumed) above

Molecule: CC(C)C[C@H](NC(=O)[C@H](Cc1ccccc1)NC(=O)c1cnccn1)B(O)O [bortezomib, [(1R)-3-methyl-1-[[(2S)-1-oxo-3-phenyl-2-[(pyrazinylcarbonyl)amino]propy-l]amino]butyl]boronic acid]
- effect of combining on the efficacy of the anti-BCMA/CD3 bispecific antibody [1]: did not have a negative effect

Molecule: CC(C)C[C@H](NC(=O)[C@H](CCc1ccccc1)NC(=O)CN1CCOCC1)C(=O)N[C@@H](Cc1ccccc1)C(=O)N[C@@H](CC(C)C)C(=O)[C@@]1(C)CO1 [carfilzomib]
- effect on the function of Combo_Rd4_0.6 nM_C29-CD3 bispecific antibody on OPM2 cells [2]: do not have a negative effect

Molecule: COc1cccc2c1C(=O)c1c(O)c3c(c(O)c1C2=O)C[C@@](O)(C(=O)CO)C[C@@H]3O[C@H]1C[C@H](N)[C@H](O)[C@H](C)O1 [doxorubicin]
- effect on the function of Combo_Rd4_0.6 nM_C29-CD3 bispecific antibody on OPM2 cells [2]: do not have a negative effect

Molecule: Nc1cccc2c1CN(C1CCC(=O)NC1=O)C2=O (stereo not drawn) [lenalidomide]
- effect of combining on the efficacy of the anti-BCMA/CD3 bispecific antibody [1]: did not have a negative effect
- effect on the function of Combo_Rd4_0.6 nM_C29-CD3 bispecific antibody on OPM2 cells [2]: do not have a negative effect

Molecule: APRIL: a proliferation-inducing ligand, ligand of BCMA
- Kd [3]: 16 nM

Molecule: BAFF: B-cell activation factor, ligand of BCMA
- Kd [3]: 1000 nM

- ka [6]: 3.74E+05
- kd [6]: 2.74E−03
B1: 2B4: anti-CD3 antibody cloned from mouse hybridoma, expressed as mouse IgG1 (antibody, V domains shown)
VH: EVKLVESGGGLVQPGGSLRLSCATFGFTFTDYYMTWVRQPPGKALEWVAFIRNRARGYTSDHNASVKGRFTISRDNSQNILYLQMNTLRAEDSATYYCARDRPSYYVLDYWGQGTTVTVSS
VL: DIVMSQSPPSLAVSVGDKVTMSCTSSQSLFNSRSRKNYLAWYQQKSGQSPKLLISWASTRESGVPDRFTGSGSGTDFTLTISSVQAEDLAVYYCKQSYDLFTFGSGTKLEIK
modifications: mouse IgG1 constant regions
- Thymidine incorporation [4]: had Thymidine incorporation reading
- Thymidine incorporation [5]: had Thymidine incorporation reading

B2: 1A4: anti-CD3 antibody cloned from mouse hybridoma, expressed as mouse IgG1 (antibody, V domains shown)
VH: QVQLQQSGPDLVKPGASVEISCKASGYSFTTYYLHWVRQRPGQGLEWIGWIFPGSDNTKYNEKFKGKATLTADTSSSTAYMQLSSLTSEDSAVYFCARNRDYYFDYWGQGTTVTVSS
VL: DIVMSQSPSSLAVSAGEKVTMSCKSSQSLLNSRTRKNYLAWYQQKPGQSPKLLIYWASTRASGVPDRFTGSGSGTDFTLTISSVQAEDLAIYYCKQSFILRTFGGGTKLEIK
modifications: mouse IgG1 constant regions
- Thymidine incorporation [4]: had Thymidine incorporation reading
- Thymidine incorporation [5]: had Thymidine incorporation reading

- ka [6]: 2.96E+05
- kd [6]: 2.37E−03
B3: 1C10: anti-CD3 antibody cloned from mouse hybridoma, expressed as mouse IgG1 (antibody, V domains shown)
VH: QVQLQQPGSELVRPGASVILSCKASGYTFTSYWMHWVRQRPGQGLEWIGNIYSGGDTINYDEKFKNKAILTVDTSSSTAYMHLSSLTSEDSAVYYCTRDATSRYFFDYWGQGTTVTVSS
VL: B2 VL with A61E, S82D, A86P, I91V, K95T
modifications: mouse IgG1 constant regions
- Thymidine incorporation [4]: had Thymidine incorporation reading
- Thymidine incorporation [5]: had Thymidine incorporation reading

B4: 7A3: anti-CD3 antibody cloned from mouse hybridoma, expressed as mouse IgG1 (antibody, V domains shown)
VH: EVQLQQSGAELVRPGALVKLSCKGSGFNIKDYYIHWVKQRPEQGLEWIGWIDPENGNNKYDPKFQGKASITADTSSNIAYLQLSSLTSEDTAVYYCARNDNYAFDYWGQGTTVTVSS
VL: B2 VL with M4V, T20I, Q44L, W56S, A61E, A86T, I91V, K95M, I99T
modifications: mouse IgG1 constant regions
- Thymidine incorporation [4]: had Thymidine incorporation reading
- Thymidine incorporation [5]: had Thymidine incorporation reading

- ka huCD3ed @37° C. [7]: 390000 M⁻¹ s⁻¹
- kd huCD3ed @37° C. [7]: 0.016 s⁻¹
B5: h2B4-VH-hnps VL_TK: anti-CD3 antibody (antibody, V domains shown)
VH: EVQLVESGGGLVQPGGSLRLSCAASGFTFSDYYMTWVRQAPGKGLEWVAFIRNRARGYTSDHNPSVKGRFTISRDNAKNSLYLQMNSLRAEDTAVYYCARDRPSYYVLDYWGQGTTVTVSS
VL: DIVMTQSPDSLAVSLGERATINCKSSQSLFNVRSRKNYLAWYQQKPGQPPKLLISWASTRESGVPDRFSGSGSGTDFTLTISSLQAEDVAVYYCKQSYDLFTFGSGTKLEIK

- ka huCD3ed @37° C. [7]: 250000 M⁻¹ s⁻¹
- kd huCD3ed @37° C. [7]: 0.023 s⁻¹
B6: h2B4-VH-yaps VL_TK: anti-CD3 antibody (antibody, V domains shown)
VH: B5 VH with H62Y, N63A
VL: B5 VL

- ka huCD3ed @37° C. [7]: 240000 M⁻¹ s⁻¹
- kd huCD3ed @37° C. [7]: 0.021 s⁻¹
B7: h2B4-VH-yads VL_TK: anti-CD3 antibody (antibody, V domains shown)
VH: B5 VH with H62Y, N63A, P64D
VL: B5 VL

- ka huCD3ed @37° C. [7]: 230000 M⁻¹ s⁻¹
- kd huCD3ed @37° C. [7]: 0.023 s⁻¹
B8: h2B4-VH-yaes VL_TK: anti-CD3 antibody (antibody, V domains shown)
VH: B5 VH with H62Y, N63A, P64E
VL: B5 VL
